Results on one molecule are retold here after patent US20130079286A1 (Pieris, published 2013).

In assay [1] the target is T1, central peptide Aβ16-27.
T1 construct: Bought from the Peptide Speciality Laboratory
T1 peptide: KLVFFAEDVGSN
In words: capture ELISA: mutein captured, Aβ16-27 titrated. (In an ELISA, binding on a coated surface is turned into a signal by an enzyme label.)

Assay [2] deals with T2, MBP-Aβ40 fusion protein.
T2 construct: the entry may be a nucleic acid; Biotin-labelled in the capture ELISA, unlabeled in the direct ELISA and SPR; also called MBP-Abeta40
In words: SPR (Biacore X), MBP-Aβ40 amine-coupled, mutein as analyte. Here is the method:
(§1) Real time analysis of Lcn2 muteins was performed on a Biacore X system (Biacore, Uppsala, Sweden) using PBS/T (PBS containing 0.005% (v/v) Tween 20) as running buffer. A 50 μg/mL solution of MBP-Aβ40 from Example 2 in 10 mM Na-acetate, pH 4.5 was immobilized onto a […] chip (Xantec, Düsseldorf, Germany) using standard amine coupling chemistry, resulting in a ligand density of 1455 resonance units (RU). […] The sensorgrams were corrected by subtraction of the corresponding signals measured for the control channel, which had been activated and blocked with ethanolamine. […] During this step the kₒₙ and koff rates were fitted globally, while the maximum response difference Rₘₐₓ was fitted locally for each curve.
A general note: Surface plasmon resonance follows binding to a sensor surface in real time, without labels.

Assay [3] addresses T2, MBP-Aβ40 fusion protein. In words: SPR (Biacore), MBP-Aβ40 amine-coupled (1455 RU), mutein as analyte. Here is the method:
(§2) FIG. 8 depicts the kinetic real time analysis of Lcn2 muteins S1-A4 (A) and US7 (B) measured on a Biacore instrument at a flow rate of 10 μl/min. The MBP-Aβ40 fusion protein was coupled via amine chemistry on a CMD 200I chip (ΔRU=1455) and each of the purified Lcn2 muteins was applied in a series at different concentrations. The measured signal is shown as a grey line whereas the curve fit is depicted as a black line in each case.
as §1

Assay [4] deals with T2, MBP-Aβ40 fusion protein. Briefly: capture ELISA: mutein captured, biotinylated MBP-Aβ40 titrated. Here is the method:
(§3) FIG. 5 depicts the binding activity of the Lcn2 muteins H1-G1, S1-A4, and US7 in capture ELISAs with different biotinylated Aβ targets. StrepMAB-Immo at 10 μg/ml was immobilized on microtitre plates and employed for capturing of 1 JAM Lcn2 muteins via the Strep-tag H. In figures A to C the binding of the Lcn2 muteins S1-A4 and US7 to (A) biotinylated Aβ40, (B) biotinylated Trx-Aβ28, and (C) biotinylated MBP-Aβ40 are shown. Binding was detected by incubation with ExtrAvidin/AP and a subsequent chromogenic reaction with pNPP. Ovalbumin (Ova), thioredoxin (Trx), and maltose binding protein (MBP) were used as negative controls. Additionally, binding of wild-type (wt) lipocalin was tested. The data were fitted to a monovalent binding model.
For selective capturing of the Lcn2 muteins carrying the C-terminal Strep-tag II (Schmidt and Skerra (2007) Nat. Protoc. 2, 1528-1535), a 96-well MaxiSorp polystyrene microtitre plate (Nunc, Langenselbold, Germany) was coated with 10 μg/mL StrepMAB-Immo (IBA, Göttingen, Germany) in PBS over night at 4° C. and blocked with 3% (w/v) BSA in PBS/T at room temperature for 1 h. After 3 washing steps with PBS/T, 50 μL of a 1 μM solution of the purified Lcn2 muteins from Example 7 were applied to all wells for 1 h. […]

The target of assay [5] is T2, MBP-Aβ40 fusion protein. In words: direct ELISA: MBP-Aβ40 coated, mutein titrated, detected via Strep-tag II. Here is the method:
The Aβ targets Trx-Aβ28 and MBP-Aβ40 as well as the control protein maltose binding protein (MBP) were immobilized at 2 μM in PBS over night. Bound Lcn2 muteins were detected via their Strep-tag II using Streptavidin/AP followed by a chromogenic reaction with pNPP. As a control, the binding of wild-type (wt) lipocalin was tested. The data were fitted to a monovalent binding model.
Alternatively, for a “direct” ELISA, 2 μM unlabeled Aβ40 target from Example 2 was adsorbed onto a 96-well MaxiSorp polystyrene microliter plate (Nunc, Langenselbold, Germany) and incubated with the purified Lcn2 mutein, which was detected via the Strep-tag II using a 1:1500 dilution of Streptavidin/AP conjugate (GE Healthcare UK Ltd, Buckinghamshire, UK). As a control, 2 μM MBP from Example 2 was adsorbed onto the ELISA plate. Absorption at 405 nm was measured in a SpectraMax 250 reader (Molecular Devices, Sunnyvale, USA).

Assay [6] concerns the target T2, MBP-Aβ40 fusion protein. Briefly: SPR (Biacore), MBP-Aβ40 amine-coupled; same experiment as the 1st table, row 20, column 2, printed with more digits. Here is the method:
as §2, §1

The target in assay [7] is T3, biotinylated Aβ40 peptide (human, C-terminal biotin group attached via a lysine spacer).
T3 construct: Synthetic peptide (Peptide Speciality Laboratory) with a C-terminal biotin on a lysine spacer; used in the capture ELISAs
T3 sequence (peptide, as listed by the source): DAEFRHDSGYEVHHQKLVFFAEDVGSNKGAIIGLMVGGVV
Briefly: capture ELISA: mutein captured via Strep-tag II on StrepMAB-Immo, biotinylated Aβ40 titrated. How it is done:
as §3
(§4) For selective capturing of the Lcn2 muteins carrying the C-terminal Strep-tag II (Schmidt and Skerra (2007) Nat. Protoc. 2, 1528-1535), a 96-well MaxiSorp polystyrene microtitre plate (Nunc, Langenselbold, Germany) was coated with 10 μg/mL StrepMAB-Immo (IBA, Göttingen, Germany) in PBS over night at 4° C. and blocked with 3% (w/v) BSA in PBS/T at room temperature for 1 h. After 3 washing steps with PBS/T, 50 μL of a 1 μM solution of the purified Lcn2 muteins from Example 7 were applied to all wells for 1 h. After washing, 50 μL of a dilution series of the biotinylated targets Aβ40, MBP-Aβ40 or Trx-Aβ28 from Example 2 were added and incubated for 1 h whereby the biotinylated forms of Ova, MBP and Trx from Example 2 served as negative control proteins. The wells were washed again and bound conjugate was detected with 50 μL of ExtrAvidin/AP conjugate (Sigma-Aldrich, Steinheim, Germany) diluted 1:5000 in PBS/T for 1 h, followed by signal development in the presence of 100 μL 0.5 mg/mL p-nitrophenyl phosphate (AppliChem, Darmstadt, Germany) in 100 mM Tris/HCl, pH 8.8, 100 mM NaCl, 5 mM MgCl₂.

Assay [8] deals with T4, Trx-Aβ28 fusion protein (Escherichia coli (strain K12), UniProt P0AA25 1-76 = thioredoxin, Biotin-labelled through an NHS ester (2:1) in the capture and competitive ELISAs; unlabeled in the direct ELISA and as competitor.).
T4 construct: the entry may be a nucleic acid; also called TrxAbeta28H6
In words: competitive ELISA: mutein captured, 5 nM biotinylated Trx-Aβ28 as tracer, unlabeled Trx-Aβ28 varied as competitor.

Assay [9] deals with T5, ovalbumin (UniProt P01012 2-386).
T5 sequence (looked up): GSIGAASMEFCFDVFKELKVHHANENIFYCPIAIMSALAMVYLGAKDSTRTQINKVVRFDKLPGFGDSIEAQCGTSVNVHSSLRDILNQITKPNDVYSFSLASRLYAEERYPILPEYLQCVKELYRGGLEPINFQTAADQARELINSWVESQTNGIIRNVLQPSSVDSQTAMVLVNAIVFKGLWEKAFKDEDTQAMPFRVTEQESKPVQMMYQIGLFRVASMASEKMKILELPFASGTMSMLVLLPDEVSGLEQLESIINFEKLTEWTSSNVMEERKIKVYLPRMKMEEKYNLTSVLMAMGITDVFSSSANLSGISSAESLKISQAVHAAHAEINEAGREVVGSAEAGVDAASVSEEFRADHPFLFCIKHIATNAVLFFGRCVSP
Briefly: capture ELISA: 1 µM Lcn2 protein captured via Strep-tag II on coated StrepMAB-Immo, biotinylated target titrated, ExtrAvidin/AP + pNPP. Here is the method: as §3, §4

B1: Lcn2 mutein S1-A4 (designed binder)
chain: QDSTSDLIPAPPLSKVPLQQNFQDNQFHGKWYVVGVAGNYTLREDKDPLKMYATIYELKEDKSYNVTSVGFRLKKCNYKIRTFVPGSQPGEFTLGIIKSQPGMTSYLVRVVSTNYNQHAMVFFKTVGQNREMFNITLYGRTKELTSELKENFIRFSKSLGLPENHIVFPVPIDQCIDG
Take B1: the dissociation constant (Kd) in [1] stood at 2.6 nM; in assay [2] it was 1.7 nM; in [4], 4.7 nM; in assay [5], 149 nM; in assay [6], 1.74 nM; in assay [7], 2.7 nM. Also, the affinity in assay [8], expressed as Kd, was 21.7 nM. For the same molecule, the koff in assay [3] stood at 8.36e-05 s⁻¹. For the same molecule, in [3], the kon was 48000 M⁻¹ s⁻¹. Besides, the binding result in assay [9] is reported as “no binding (tested: 250 nM)”.

A word on the Kd: it is the constant that tells how readily two partners part at equilibrium. Low readings indicate a tighter complex, high ones a looser complex. As usually defined, the koff is the rate constant with which the complex falls apart. A lower koff goes with a long-lived complex. The kon is the rate constant with which the complex forms. Read a high kon as fast association.
